Data on 18 molecules can be found in patent publication US20240026011A1 (published 2024).

Changes are numbered by the printed parent chain.

First the molecules themselves.
B1: 1058 (Pro1037) (protein)
chain: QVQLQESGGGLVQPGGSLRLTCAASGRAISSYAISWFRQAPGEEREFVAAINWSGTHTNYADSVKGRFTISRDNVKNTVYLQMNSLKPEDTATYFCSRGWSVFDPDYRGQGTQVTVSS
B2: Pro1038 VIB1059 (bispecific antibody, V domains shown)
VH: B1 chain with N59D, V75A, T93V
B3: Pro1036 VIB1055 (bispecific antibody, V domains shown)
VH: B1 chain with A23E, A24V
B4: Pro1043 VIB1139 (bispecific antibody, V domains shown)
VH: QVQLQESGGGLVQPGGSLRLSCAASGFTFDDYAMSWIRQAPGKEMEWVSGINWSGTHTRYADSVKGRFTISRDNAKNTLDLQMNSLISEDTAVYYCARGFAADSRSTRGQGTQVTVSS
B5: h1139 (Pro1060) (protein)
chain: B4 VH with Q5V, L11V, Q13R, T78S, D80Y, I87R, S88A, V93L, Q113L
B6: humanized aHER2 sdAb h1162 (VHH)
VHH: QVQLLESGGGLVQPGGSLRLSCAASGRPFSGNAMGWFRQAPGKEREFVAAISWSGDSTYYADSVKGRFTISRDNSKNTLYLQMNSLRAEDTAVYYCAATRSFYSRTYYTRPSDYNYWGPGTLVTVSS
B7: Pro1047 VIB1162 (bispecific antibody, V domains shown)
VH: B6 VHH with L5Q, P14A, S75D, K76E, L79A, R87K, A88P, L122Q
B8: 1091 (Pro1039) (protein)
chain: QVQLQESGGGLVQPGGSLRLSCAASGFTFDDYAMSWVRQAPGKGLEWVSSINWSGTHTDYADSVKGRFTISRDNAKNTLYLQMNSLKSEDSAVYYCVKGWRLTGGYYDSVQGQGTQVTVSS
B9: 1092 (Pro1040) (protein)
chain: B8 chain with P14A, G16A, M34L
B10: 1097 (Pro1041) (protein)
chain: B8 chain with T28I, S35T, L102H, G104D, G105N, D108A, S109G
B11: 1160 (Pro1046) (antibody, V domains shown)
VH: QVQLQESGGGLVQAGGSLRLSCAASGRTFSNERLGWFRQAPGKERELVAAIRWSGVIIGYADSVRGRFTISRDNAKSTVYLQMNSLRPEDTAVYFCAADRGVYGTWDYWGQGTQVTVSS
B12: 1121 (Pro1042) (protein)
chain: QVQLQESGGGLVQAGGSLRLSCAASGFIFSDYAMTWVRQAPGKGLEWVSSINWSGTHTNYADSVKGRFTISRDNAKKTLYLQMNSLKSEDTAVYYCARGWMVVPDSTRGQGTQVTVSS
B13: Pro1045 VIB1159 (bispecific antibody, V domains shown)
VH: QVQLQESGGGLVQAGGSLRLSCATSGRTFSSLAMGWFRQAPGKERELVAGISWSGSTTYYADSVKGRFAISRDNAKNTVYLQMNSLKPEDTAVYYCAARTSSIATIGREYDYWGQGTQVTVSS
B14: h1159 (Pro1062) (antibody, V domains shown)
VH: B13 VH with Q5L, A14P, A75S, V79L, K87R, P88A, Q118L
B15: Pro1044 VIB1156 (bispecific antibody, V domains shown)
VH: QVQLQESGGGLVQAGGSLKVSCAASRNIGSNYAVGWFRQAPGKEREPVAALRWTGSIIGYDDSLRGRFTISKDDAKNTVYLQMNSLKPEDTGVYYCAARILDRSSYDYWGQGTQVTVSS
B16: h456 (Pro509) (antibody, V domains shown)
VH: QVQLVESGGGLVQPGGSLRLSCAASGSALIINAMGWYRQAPGKQRELVATVTRSGRTNYADSVKGRFTISRDNSKNTLYLQMNSLRAEDTAVYYCNVALWIADGEYDYWGQGTLVTVSS
B17: h445 (Pro512) (antibody, V domains shown)
VH: QVQLVESGGGLVKPGGSLRLSCAASGITFNLHAMRWYRRAPGKQRELVAYISARDWTNYADSVKGRFTISRDNAKNSLYLQMNSLRAEDTAVYYCNTDLVGEDYWGRGTLVTVSS
B18: h476 (Pro510) (antibody, V domains shown)
VH: QVQLVESGGGLVQPGGSLRLSCAASGNIFIINVMGWYRQAPGKQRELVATITNGGRTHYADSVKGRFTISRDNSKNTLYLQMNSLRAEDTAVYYCNANHIELGDYWGQGTLVTVSS

Chain of cyno CA9 on cells (A0A2K5VQG9 entry or part of it): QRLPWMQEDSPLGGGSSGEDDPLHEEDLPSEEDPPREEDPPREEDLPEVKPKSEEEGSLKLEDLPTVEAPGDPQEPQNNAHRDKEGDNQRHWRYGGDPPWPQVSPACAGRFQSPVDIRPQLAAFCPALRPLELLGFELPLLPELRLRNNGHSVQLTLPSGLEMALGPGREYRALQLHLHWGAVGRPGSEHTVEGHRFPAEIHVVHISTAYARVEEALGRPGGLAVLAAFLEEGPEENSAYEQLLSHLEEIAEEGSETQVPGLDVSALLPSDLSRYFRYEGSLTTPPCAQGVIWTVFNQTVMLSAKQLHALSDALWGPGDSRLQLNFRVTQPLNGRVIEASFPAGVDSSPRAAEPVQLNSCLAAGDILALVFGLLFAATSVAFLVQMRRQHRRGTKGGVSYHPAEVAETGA

One test concerns the target cyno HER2 on cells (cynomolgus monkey, UniProt A0A2K5WUT7 1-1225). Description: kinetic affinity (kon/koff); Pro51 format.
A word on the Kd: it is the concentration at which binding is half-saturated. A lower Kd goes with higher affinity. Turning to B1, binding was characterised by a dissociation constant (Kd) of 9.7 nM. In other words, the single-digit nanomolar range.

Molecule B2 registered a Kd of 85 nM.

Turning to B3, binding was put at a Kd of 69.9 nM.

In the case of B4, the dissociation constant Kd came to 6.7 nM.

Regarding B5, the Kd came out at 7.4 nM.

Molecule B6 returned an equilibrium dissociation constant (Kd) of 21.8 nM.

With B7, the affinity, expressed as Kd, was 21.2 nM.

Molecule B8 displayed a Kd of 8.5 nM.

Regarding B9, the Kd was 4.5 nM. Against the preceding molecule, the Kd is about 1.9-fold lower.

For the molecule B10, the Kd stood at 4.3 nM. This Kd and that of the molecule before are within 1.5-fold of each other.

In the case of B11, binding was characterised by a dissociation constant (Kd) of 10.8 nM.

The molecule B12 came in with a Kd of 4.6 nM.

For the molecule B13, binding was put at a Kd of 17 nM. Against the preceding molecule, the Kd is about 3.7-fold higher.

In turn, B14 gave a dissociation constant Kd of 37 nM.

For the molecule B15, binding was put at a Kd of 9 nM.

For another test, the target named is human HER2 on cells (human, UniProt P04626 23-1255). Briefly: kinetic affinity (kon/koff); Pro51 format.
On to B1, for which the Kd is 8.6 nM.

Another test concerns the target cyno CA9 on cells (cyno, UniProt A0A2K5VQG9 38-447). Description: affinity; Pro51 format.
B16 registered a Kd of 1.1 nM.

With B17, the dissociation constant (Kd) came out at 4.9 nM. This Kd is about 4.5-fold higher than that of the molecule before.

B18 had a Kd of 1.2 nM.

Another test concerns the target human CA9 on cells (human, UniProt Q16790 38-459). Description: affinity; Pro51 format.
With B16, binding was put at a Kd of 0.7 nM.

On to B17, for which binding was put at a Kd of 3.1 nM.

Turning to B18, the dissociation constant Kd is 1.6 nM.
